Source: publication PMC2553836, “Control of Jasmonate Biosynthesis and Senescence by miR319 Targets”

Target: T1, TCP4 N-terminal fragment (pRSETC-TCP4-1, TCP4-N224) (Arabidopsis thaliana, UniProt Q8LPR5 1-224)
T1 sequence: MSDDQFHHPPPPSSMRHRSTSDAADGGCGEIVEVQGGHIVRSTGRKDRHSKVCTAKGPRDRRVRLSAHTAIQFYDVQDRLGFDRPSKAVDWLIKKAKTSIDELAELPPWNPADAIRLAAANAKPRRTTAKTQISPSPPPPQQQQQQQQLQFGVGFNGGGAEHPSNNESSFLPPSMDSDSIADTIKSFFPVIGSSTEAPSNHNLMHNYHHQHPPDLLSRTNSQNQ
Experiment: EMSA; 20 mM HEPES-KOH pH 7.8, 100 mM KCl, 1 mM EDTA, 0.1% BSA, 10 ng herring sperm DNA, 10% glycerol, ~10 fmol probe, 5-100 ng protein in 10 ul, 30 min room temperature; 6% native gel, 0.5x TBE
Conditions: protein: recombinant; tags: His; chain copies: 2; label: 32P-dCTP (Klenow) as probe

B1: TCP4 consensus wild type (dsDNA)
DNA 1: AGATGGGGGACCACATAGATGT
DNA 2: ACATCTATGTGGTCCCCCATCT
Q: Does B1 bind?
A: Result: binds
